In test [1] the test system is partial-thickness injury of rabbit knee cartilage. Kind of test: Partial-thickness cartilage defect of adult rabbit knee joint, intra-articular rhMK. Type of test: in vivo, New Zealand white rabbits. Conditions: adult rabbit knee cartilage partial-thickness injury model, 4 and 9 weeks after surgery, versus saline side. The procedure: Method. 9˜10-month-old male New Zealand white rabbits (3.0˜3.5 kg weight) were anesthetized with 3% pentobarbital sodium (30 mg/kg) by ear vein injection. After anesthesia, the skin was prepared on both sides of the knees. With conventional surgical sterilization and under sterile conditions, the inner side of the knees was cut to expose the femoral condyle surface. A hand-drill was used to make a partial-thickness cartilage injury of 3 mm in diameter on the femoral condyle surface. The partial-thickness injury was created by the criterion of no bleeding in the injured cartilage hole. The wound was sutured with 4-0 lines. 400,000 units penicillin was injected every day for one week to prevent the wound site infection. 24 h after the surgery, normal saline or rhMK was injected into the knee-articular cavity. Partial-thickness cartilage damages were created on both rabbit knees. One knee received 0.5 ml saline as control side, while 0.5 ml rhMK was given into the other knees as treatment side. The injections were given three times a week, for 2 weeks totally. The rabbits were kept in cage and allowed freedom of movement without the knee fixed. 4 and 9 weeks after the surgery, rabbits were sacrificed. The knee-joint cartilage tissues were removed for routine biopsy, H&E, and toluidine blue staining, and their histological changes were analyzed under microscope.

In test [2] the test system is cartilage of normal New Zealand rabbit (articular, ear, tracheal, intervertebral disc). Kind of test: rhMK effect on cartilage thickness of normal rabbits (subcutaneous injection, histology). Type of test: in vivo. Conditions: rhMK 92.5 μg/kg s.c. daily for two weeks. How it is done: Method. 8-weeks-old male C57BL/6J mice were injected subcutaneously with recombinant human MK (rhMK) or control saline. The injection volume was 0.5 ml, given daily for a week. The mice were grouped (3 animals per group): Saline (NS) group, rhMK groups injected with various dosages at 10, 33, 100, 300, 900 μg/kg. Rats were injected with saline or rhMK (175 μg/kg) daily for a week. Rabbits were injected with saline or rhMK (92.5 μg/kg) daily for two week. Histological observation and evaluation. The knee joint tissues of all mice and rats were fixed in 10% (v/v) formalin for 1 day, the tissues of rabbits were fixed for 2 days. The fixed tissues were subjected to demineralization in liquid (7% AlCl3.6H2O, 5% methanoic acid, 8.5% HCl) 4 days for mouse and rats issues, and 10 days for rabbit tissues. The demineralized tissues were subjected to dehydration by gradient ethanol, and treated for transparency by xylene, and embedded in wax. Tissue sections were prepared by the paraffin slicing machine (Laica), and stained with hemotoxylin/eosin or Safranine O/fast green staining. Slides were observed under microscope and analyzed. The thickness of cartilage tissues were measured by the vernier caliper on microscope. Three tissue sections from each sample were measured and analyzed statisticaly. The distance between surface of cartilage to subchondral tide line was measured at ½ position of femoral condyle to denote the thickness of knee-joint cartilage. The thickness of cartilage at central part of ears was measured to denote the thickness of ear elastic cartilage. The distance between out surface of annulus to nucleus of the intervertebral disc was measured to denote the thickness of thoracic intervertebral disc (T2-3). To verify the results of rhMk in mice, we performed the same experiments in vivo using commonly used laboratory animals, rat and rabbit. Rats were injected subcutaneously with rhMK at 175 μg/kg/day for one week, and rabbits was injected subcutaneously 92.5 ug/kg/day for two weeks. […] The injection dose of rhMK: mice was injected subcutaneously 300 μg/kg daily for a week; rats were injected 175 μg/kg daily for a week; and New Zealand rabbits was injected 92.5 μg/kg daily for two weeks. Three animals per group were analyzed.

In test [3] the test system is dedifferentiated rat chondrocytes in high-density culture. The experiment in a line: Redifferentiation of dedifferentiated chondrocytes in high-density culture (Col2a1 expression). Type of test: cell-based. How it is done: 5. High density culture of chondrocytes. The chondrocytes were harvested and suspended in DMEM containing 10% FBS. The cells were seeded at 4×10^5 cells/well into a 24-well plate, and experiment was divided into two groups: control group and experimental group (with 3 μg/m. 1 rhMK). When the cells reached confluence, they were cultured for additional 14 days. The culture medium was changed every two days. After the culture, some of the cells were collected for RNA extraction, and some were treated with trypsin and 0.2% type II collagenase at 37° C. for 30 min. The cells were cytospined onto glass slide and stored at −80° C. 6. Immunohistochemical staining. The cytospined glass slides covered with the cultured chondrocytes under various conditions were stored at −80° C. They were fixed in cold acetone for 10 min, treated sequentially in PBS for 5 min, in 3% H2O2 (in ddH2O) for 10 min at room temperature, and finally in ddH2O for 5 min. The slides were covered with 5% BSA (bovine serum albumine) for 20 min at room temperature. The excess serum was removed and the sections were covered with antibody against type II collagen (dilution 1:100) for 30 min at 37° C. […] RNA extraction and semi-quantitative PCR. […] PCR products were separated on 1.5% (w/v) agarose gels and quantified after staining with ethidium bromide in comparison with internal control gene expression of β-actin.

B1: rhMK: recombinant human midkine mature protein (SEQ ID NO.1) expressed in E. coli and purified by ion-exchange chromatography (protein, listed as Homo sapiens)
chain: MKKKDKVKKGGPGSECAEWAWGPCTPSSKDCGVGFREGTCGAQTQRIRCRVPCNWKKEFGADCKYKFENWGACDGGTGTKVRQGTLKKARYNAQCQETIRVTKPCTPKTKAKAKAKKGKGKD
B1: the “repair of injured cartilage (histology)” value in test [1] is on record as “repairs the injured cartilage with regenerated cartilage tissues”. In addition, in test [2], the Cartilage thickness, Ear came to 605.4 ± 5.4 µm; the Cartilage thickness, Femoral condyle is 612 ± 6.4 µm; the Cartilage thickness, Intervertbral disc (T2-3) was 1520 ± 54 µm; the Cartilage thickness, Trachea came out at 495 ± 6.5 µm. Besides, the “effect on Col2a1 re-expression” value in test [3] (P3 fibrochondrocytes cultured in high-density) was “no effect”. For the same molecule, in test [3] (P6 articular chondrocyte and P3 auricular chondrocyte), the “Col2a1 expression level in high-density cultures with rhMK” value was “significantly inhibited”.

The values are drawn from patent publication US9283300B2, “Use of midkine protein and the protein-containing medical device” (GENERAL REGENERATIVES, LTD, priority 2009, dated 2016).
